Laboratory results published in PMC11287377, “tRNA ^Arg binds in vitro TDP-43 RNA recognition motifs and ligand of Ate1 protein LIAT1” (microPublication Biology, 2024).

B1: human TDP-43 NTD (residues 1-85) (domain or fragment, UniProt Q13148 1-85, looked up)
chain: MSEYIRVTEDENDEPIEIPSEDDGTVLLSTVTAQFPGACGLRYRNPVSQCMRGVRLVEGILHAPDAGWGNLVYVVNYPKDNKRKM
notes: Tags removed with TEV protease; also called hTDP-43 NTD; source: E. coli BL21 KRX, purified (NiNTA, TEV digestion, SEC)
B2: human TDP-43 NTD-ΔNLS-RRM1-RRM2 (residues 1-85 and 101-266) (domain or fragment, UniProt Q13148 1-85, looked up)
chain: MSEYIRVTEDENDEPIEIPSEDDGTVLLSTVTAQFPGACGLRYRNPVSQCMRGVRLVEGILHAPDAGWGNLVYVVNYPKDNKRKMQKTSDLIVLGLPWKTTEQDLKEYFSTFGEVLMVQVKKDLKTGHSKGFGFVRFTEYETQVKVMSQRHMIDGRWCDCKLPNSKQSQDEPLRSRKVFVGRCTEDMTEDELREFFSQYGDVMDVFIPKPFRAFAFVTFADDQIAQSLCGEDLIIKGISVHISNAEPKHNS
notes: Internal deletion of the NLS linker (residues 86-100); no replacing linker is mentioned; Tags removed with TEV protease; also called hTDP-43 NTD-ΔNLS-RRM1-RRM2; source: E. coli BL21 KRX, purified (NiNTA, TEV digestion, SEC)
B3: human TDP-43 NLS-RRM1-RRM2 (residues 85-266) (domain or fragment, UniProt Q13148 85-266, looked up)
chain: MDETDASSAVKVKRAVQKTSDLIVLGLPWKTTEQDLKEYFSTFGEVLMVQVKKDLKTGHSKGFGFVRFTEYETQVKVMSQRHMIDGRWCDCKLPNSKQSQDEPLRSRKVFVGRCTEDMTEDELREFFSQYGDVMDVFIPKPFRAFAFVTFADDQIAQSLCGEDLIIKGISVHISNAEPKHNS
notes: Tags removed with TEV protease; also called hTDP-43 NLS-RRM1-RRM2; source: E. coli BL21 KRX, purified (NiNTA, TEV digestion, SEC)
B4: recombinant mouse LIAT1 (ligand of Ate1 protein), full length (natural protein, UniProt Q810M6 1-228, looked up)
chain: MAGRGGTGAAEYGEEGEEEEEEEAREGGAEGSPGSKLPPIVGTASELAKRKVKKKKKKKKTKGSGKGDADKHHSRGRKNQPLSSSFHDILNPHKDHGLRAEPRDKEENRQTLPYSYSINHPCFAEIEDTLSSQINESLRWDGILTDPEAEKERIRIYKLNRRKRYRLMALKCFHSDPCVEESVENLPYLSDKDCSPCSKQPSSKGDHAHSYFEASKLLHPELATTVAE
notes: LIAT1 (ligand of Ate1), Mus musculus, full length, theoretical molecular weight ~24 kDa; Tags removed with TEV protease; also called mLIAT1; source: E. coli BL21 KRX, purified (NiNTA, TEV digestion, SEC)

Target: the molecule itself
Assay: SEC; 500 uL of tagless purified protein on Superdex 75 10/30 in SEC buffer (150 mM KCl, 20 mM NaCl, 1 mM MgCl2, 5% glycerol, 50 mM HEPES pH 7.7), 0.5 mL/min; size from a calibration curve of standard proteins

Stoichiometry N, 2:
B1
B2
B3
B4
